From PMC4474691, “Leukemia-Associated Mutations in Nucleophosmin Alter Recognition by CRM1: Molecular Basis of Aberrant Transport” (PLoS ONE, 2015)

B1: importin Δα (importin α lacking the importin β binding (IBB) motif) (domain or fragment)
chain: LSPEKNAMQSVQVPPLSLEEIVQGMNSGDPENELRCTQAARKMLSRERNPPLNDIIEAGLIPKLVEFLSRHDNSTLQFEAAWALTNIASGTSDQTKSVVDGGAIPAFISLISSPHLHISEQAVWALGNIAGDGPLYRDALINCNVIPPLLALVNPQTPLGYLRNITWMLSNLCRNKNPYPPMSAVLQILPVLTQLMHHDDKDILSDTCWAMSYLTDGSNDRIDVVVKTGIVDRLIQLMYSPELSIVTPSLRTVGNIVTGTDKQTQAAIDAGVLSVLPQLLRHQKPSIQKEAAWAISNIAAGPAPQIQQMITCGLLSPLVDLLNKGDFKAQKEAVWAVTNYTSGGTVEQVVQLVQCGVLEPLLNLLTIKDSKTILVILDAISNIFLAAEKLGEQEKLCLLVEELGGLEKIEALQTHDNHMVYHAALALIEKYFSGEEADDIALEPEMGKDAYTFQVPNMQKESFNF
B2: importin α (receptor)
chain: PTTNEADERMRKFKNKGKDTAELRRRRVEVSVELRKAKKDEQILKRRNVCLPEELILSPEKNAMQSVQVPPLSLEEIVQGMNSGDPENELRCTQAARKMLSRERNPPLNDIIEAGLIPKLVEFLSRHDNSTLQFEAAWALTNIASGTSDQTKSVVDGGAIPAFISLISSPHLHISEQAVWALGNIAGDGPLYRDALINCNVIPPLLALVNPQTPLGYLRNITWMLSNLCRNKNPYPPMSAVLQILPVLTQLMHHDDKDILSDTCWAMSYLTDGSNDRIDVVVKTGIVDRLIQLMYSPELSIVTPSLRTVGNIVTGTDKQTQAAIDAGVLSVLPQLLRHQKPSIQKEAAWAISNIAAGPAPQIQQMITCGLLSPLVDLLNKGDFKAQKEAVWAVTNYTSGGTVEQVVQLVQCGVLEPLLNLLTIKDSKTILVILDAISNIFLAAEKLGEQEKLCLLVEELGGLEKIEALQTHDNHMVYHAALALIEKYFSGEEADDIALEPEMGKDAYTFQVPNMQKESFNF

Molecular target: T1, wild type nucleophosmin (NPM) (human, UniProt P06748 1-294)
T1 construct: human nucleophosmin, full length, wild type, pentameric; also called NPM1; B23; source: E. coli BL21 (DE3), purified (Ni-NTA, TEV, second Ni-NTA, Superdex 200); not shown: (His)10-ZZ, N-terminal, cleaved
T1 sequence (P06748 whole entry): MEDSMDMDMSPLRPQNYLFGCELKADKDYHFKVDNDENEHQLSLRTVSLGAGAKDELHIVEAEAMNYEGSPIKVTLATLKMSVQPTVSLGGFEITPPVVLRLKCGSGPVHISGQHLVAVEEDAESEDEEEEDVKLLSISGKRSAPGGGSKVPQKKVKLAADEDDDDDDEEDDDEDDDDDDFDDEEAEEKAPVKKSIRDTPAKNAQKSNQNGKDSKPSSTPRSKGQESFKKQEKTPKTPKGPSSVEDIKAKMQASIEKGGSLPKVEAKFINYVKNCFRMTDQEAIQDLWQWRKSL
Test: ITC; importin α, importin Δα or importin α/β at 45–60 μM titrated onto NPM (1–1.2 μM pentamer); 50 mM Tris/HCl pH 7.5, 100 mM NaCl, 2 mM TCEP, 10% glycerol; identical, independent binding sites model; n counts importins for each NPM pentamer
Settings: both partners purified

| Binder | Kd | dH | stoichiometry N |
| --- | --- | --- | --- |
| B1 | 295 ± 20 nM | -14.3 ± 3.5 kcal/mol | 4.9 ± 0.2 |
| B2 | 703 ± 347 nM | -10.9 ± 4 kcal/mol | 5 ± 0.2 |
